Experimental data from paper PMC11574045, “A cofactor-induced repressive type of transcription factor condensation can be induced by synthetic peptides to suppress tumorigenesis” (The EMBO Journal, 2024).

System: HEK293FT cells transfected with TF library
Assay: Screening of TF condensates based on fluorescent puncta
Type: cell-based
Conditions: Figure 1B numerical data; TF library screen, one value per transcriptional factor
Summary of the method: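 Cells were seeded onto plasmid/PEI-loaded wells (plasmid 1.6 μg/ml final) and grown 60 h. Medium with or without glucose followed for 12 h. Fixed, permeabilized cells were stained against Flag or GAL4 tags, and condensate puncta were quantified from 50 random fields per well.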

| Molecule | Z score of condensed fraction |
| --- | --- |
| MTDH (protein, UniProt Q86UE4 1-582, looked up) Protein LYRIC: MAARSWQDELAQQAEEGSARLREMLSVGLGFLRTELGLDLGLEPKRYPGWVILVGTGALGLLLLFLLGYGWAAACAGARKKRRSPPRKREEAAAVPAAAPDDLALLKNLRSEEQKKKNRKKLSEKPKPNGRTVEVAEGEAVRTPQSVTAKQPPEIDKKNEKSKKNKKKSKSDAKAVQNSSRHDGKEVDEGAWETKISHREKRQQRKRDKVLTDSGSLDSTIPGIENTITVTTEQLTTASFPVGSKKNKGDSHLNVQVSNFKSGKGDSTLQVSSGLNENLTVNGGGWNEKSVKLSSQISAGEEKWNSVSPASAGKRKTEPSAWSQDTGDANTNGKDWGRSWSDRSIFSGIGSTAEPVSQSTTSDYQWDVSRNQPYIDDEWSGLNGLSSADPNSDWNAPAEEWGNWVDEERASLLKSQEPIPDDQKVSDDDKEKGEGALPTGKSKKKKKKKKKQGEDNSTAQDTEELEKEIREDLPVNTSKTRPKQEKAFSLKTISTSDPAEVLVKNSQPIKTLPPATSTEPSVILSKSDSDKSSSQVPPILQETDKSKSNTKQNSVPPSQTKSETSWESPKQIKKKKKARRET | 1.2714 |
| MYOG (protein, UniProt P15173 1-224, looked up) Myogenin: MELYETSPYFYQEPRFYDGENYLPVHLQGFEPPGYERTELTLSPEAPGPLEDKGLGTPEHCPGQCLPWACKVCKRKSVSVDRRRAATLREKRRLKKVNEAFEALKRSTLLNPNQRLPKVEILRSAIQYIERLQALLSSLNQEERDLRYRGGGGPQPGVPSECSSHSASCSPEWGSALEFSANPGDHLLTADPTDAHNLHSLTSIVDSITVEDVSVAFPDETMPN | 0.6311 |
| MUSCLIN (protein, UniProt P61366 28-133, looked up) Osteocrin: VDVTTTEAFDSGVIDVQSTPTVREEKSATDLTAKLLLLDELVSLENDVIETKKKRSFSGFGSPLDRLSAGSVDHKGKQRKVVDHPKRRFGIPMDRIGRNRLSNSRG | 0.265 |
| MLLT10 (protein, UniProt P55197 1-1068, looked up) Protein AF-10: MVSSDRPVSLEDEVSHSMKEMIGGCCVCSDERGWAENPLVYCDGHGCSVAVHQACYGIVQVPTGPWFCRKCESQERAARVRCELCPHKDGALKRTDNGGWAHVVCALYIPEVQFANVSTMEPIVLQSVPHDRYNKTCYICDEQGRESKAATGACMTCNKHGCRQAFHVTCAQFAGLLCEEEGNGADNVQYCGYCKYHFSKLKKSKRGSNRSYDQSLSDSSSHSQDKHHEKEKKKYKEKDKHKQKHKKQPEPSPALVPSLTVTTEKTYTSTSNNSISGSLKRLEDTTARFTNANFQEVSAHTSSGKDVSETRGSEGKGKKSSAHSSGQRGRKPGGGRNPGTTVSAASPFPQGSFSGTPGSVKSSSGSSVQSPQDFLSFTDSDLRNDSYSHSQQSSATKDVHKGESGSQEGGVNSFSTLIGLPSTSAVTSQPKSFENSPGDLGNSSLPTAGYKRAQTSGIEEETVKEKKRKGNKQSKHGPGRPKGNKNQENVSHLSVSSASPTSSVASAAGSITSSSLQKSPTLLRNGSLQSLSVGSSPVGSEISMQYRHDGACPTTTFSELLNAIHNGIYNSNDVAVSFPNVVSGSGSSTPVSSSHLPQQSSGHLQQVGALSPSAVSSAAPAVATTQANTLSGSSLSQAPSHMYGNRSNSSMAALIAQSENNQTDQDLGDNSRNLVGRGSSPRGSLSPRSPVSSLQIRYDQPGNSSLENLPPVAASIEQLLERQWSEGQQFLLEQGTPSDILGMLKSLHQLQVENRRLEEQIKNLTAKKERLQLLNAQLSVPFPTITANPSPSHQIHTFSAQTAPTTDSLNSSKSPHIGNSFLPDNSLPVLNQDLTSSGQSTSSSSALSTPPPAGQSPAQQGSGVSGVQQVNGVTVGALASGMQPVTSTIPAVSAVGGIIGALPGNQLAINGIVGALNGVMQTPVTMSQNPTPLTHTTVPPNATHPMPATLTNSASGLGLLSDQQRQILIHQQQFQQLLNSQQLTPEQHQAFLYQLMQHHHQQHHQPELQQLQIPGPTQIPINNLLAGTQAPPLHTATTNPFLTIHGDNASQKVARLSDKTGPVAQEKS | 0.7939 |
| MSGN1 (protein, UniProt A6NI15 1-193, looked up) Mesogenin-1: MDNLRETFLSLEDGLGSSDSPGLLSSWDWKDRAGPFELNQASPSQSLSPAPSLESYSSSPCPAVAGLPCEHGGASSGGSEGCSVGGASGLVEVDYNMLAFQPTHLQGGGGPKAQKGTKVRMSVQRRRKASEREKLRMRTLADALHTLRNYLPPVYSQRGQPLTKIQTLKYTIKYIGELTDLLNRGREPRAQSA | 0.1411 |
| ATF1 (protein, UniProt P18846 1-271, looked up) Cyclic AMP-dependent …: MEDSHKSTTSETAPQPGSAVQGAHISHIAQQVSSLSESEESQDSSDSIGSSQKAHGILARRPSYRKILKDLSSEDTRGRKGDGENSGVSAAVTSMSVPTPIYQTSSGQYIAIAPNGALQLASPGTDGVQGLQTLTMTNSGSTQQGTTILQYAQTSDGQQILVPSNQVVVQTASGDMQTYQIRTTPSATSLPQTVVMTSPVTLTSQTTKTDDPQLKREIRLMKNREAARECRRKKKEYVKCLENRVAVLENQNKTLIEELKTLKDLYSNKSV | -0.9514 |
| MXD4 (protein, UniProt Q14582 1-209, looked up) Max dimerization protein 4: MELNSLLILLEAAEYLERRDREAEHGYASVLPFDGDFAREKTKAAGLVRKAPNNRSSHNELEKHRRAKLRLYLEQLKQLVPLGPDSTRHTTLSLLKRAKVHIKKLEEQDRRALSIKEQLQQEHRFLKRRLEQLSVQSVERVRTDSTGSAVSTDDSEQEVDIEGMEFGPGELDSVGSSSDADDHYSLQSGTGGDSGFGPHCRRLGRPALS | -0.9909 |
| MYCBP (protein, UniProt Q99417 2-103, looked up) c-Myc-binding protein: AHYKAADSKREQFRRYLEKSGVLDTLTKVLVALYEEPEKPNSALDFLKHHLGAATPENPEIELLRLELAEMKEKYEAIVEENKKLKAKLAQYEPPQEEKRAE | -0.1227 |
| MLR2 (protein, UniProt Q96JN0 1-433, looked up) Ligand-dependent corepressor: MQRMIQQFAAEYTSKNSSTQDPSQPNSTKNQSLPKASPVTTSPTAATTQNPVLSKLLMADQDSPLDLTVRKSQSEPSEQDGVLDLSTKKSPCAGSTSLSHSPGCSSTQGNGRPGRPSQYRPDGLRSGDGVPPRSLQDGTREGFGHSTSLKVPLARSLQISEELLSRNQLSTAASLGPSGLQNHGQHLILSREASWAKPHYEFNLSRMKFRGNGALSNISDLPFLAENSAFPKMALQAKQDGKKDVSHSSPVDLKIPQVRGMDLSWESRTGDQYSYSSLVMGSQTESALSKKLRAILPKQSRKSMLDAGPDSWGSDAEQSTSGQPYPTSDQEGDPGSKQPRKKRGRYRQYNSEILEEAISVVMSGKMSVSKAQSIYGIPHSTLEYKVKERLGTLKNPPKKKMKLMRSEGPDVSVKIELDPQGEAAQSANESKNE | 0.991 |
| MLXIP (protein, UniProt Q9HAP2 2-919, looked up) MLX-interacting protein: AADVFMCSPRRPRSRGRQVLLKPQVSEDDDDSDTDEPSPPPASGAATPARAHASAAPPPPRAGPGREEPPRRQQIIHSGHFMVSSPHREHPPKKGYDFDTVNKQTCQTYSFGKTSSCHLSIDASLTKLFECMTLAYSGKLVSPKWKNFKGLKLQWRDKIRLNNAIWRAWYMQYLEKRKNPVCHFVTPLDGSVDVDEHRRPEAITTEGKYWKSRIEIVIREYHKWRTYFKKRLQQHKDEDLSSLVQDDDMLYWHKHGDGWKTPVPMEEDPLLDTDMLMSEFSDTLFSTLSSHQPVAWPNPREIAHLGNADMIQPGLIPLQPNLDFMDTFEPFQDLFSSSRSIFGSMLPASASAPVPDPNNPPAQESILPTTALPTVSLPDSLIAPPTAPSLAHMDEQGCEHTSRTEDPFIQPTDFGPSEPPLSVPQPFLPVFTMPLLSPSPAPPPISPVLPLVPPPATALNPPAPPTFHQPQKFAGVNKAPSVITHTASATLTHDAPATTFSQSQGLVITTHHPAPSAAPCGLALSPVTRPPQPRLTFVHPKPVSLTGGRPKQPHKIVPAPKPEPVSLVLKNARIAPAAFSGQPQAVIMTSGPLKREGMLASTVSQSNVVIAPAAIARAPGVPEFHSSILVTDLGHGTSSPPAPVSRLFPSTAQDPLGKGEQVPLHGGSPQVTVTGPSRDCPNSGQASPCASEQSPSPQSPQNNCSGKSDPKNVAALKNRQMKHISAEQKRRFNIKMCFDMLNSLISNNSKLTSHAITLQKTVEYITKLQQERGQMQEEARRLREEIEELNATIISCQQLLPATGVPVTRRQFDHMKDMFDEYVKTRTLQNWKFWIFSIIIKPLFESFKGMVSTSSLEELHRTALSWLDQHCSLPILRPMVLSTLRQLSTSTSILTDPAQLPEQASKAVTRIGKRLGES | -0.5131 |
| MNAT1 (protein, UniProt P51948 1-309, looked up) CDK-activating kinase …: MDDQGCPRCKTTKYRNPSLKLMVNVCGHTLCESCVDLLFVRGAGNCPECGTPLRKSNFRVQLFEDPTVDKEVEIRKKVLKIYNKREEDFPSLREYNDFLEEVEEIVFNLTNNVDLDNTKKKMEIYQKENKDVIQKNKLKLTREQEELEEALEVERQENEQRRLFIQKEEQLQQILKRKNKQAFLDELESSDLPVALLLAQHKDRSTQLEMQLEKPKPVKPVTFSTGIKMGQHISLAPIHKLEEALYEYQPLQIETYGPHVPELEMLGRLGYLNHVRAASPQDLAGGYTSSLACHRALQDAFSGLFWQPS | -0.8808 |
| MYNN (protein, UniProt Q9NPC7 1-610, looked up) Myoneurin: MQYSHHCEHLLERLNKQREAGFLCDCTIVIGEFQFKAHRNVLASFSEYFGAIYRSTSENNVFLDQSQVKADGFQKLLEFIYTGTLNLDSWNVKEIHQAADYLKVEEVVTKCKIKMEDFAFIANPSSTEISSITGNIELNQQTCLLTLRDYNNREKSEVSTDLIQANPKQGALAKKSSQTKKKKKAFNSPKTGQNKTVQYPSDILENASVELFLDANKLPTPVVEQVAQINDNSELELTSVVENTFPAQDIVHTVTVKRKRGKSQPNCALKEHSMSNIASVKSPYEAENSGEELDQRYSKAKPMCNTCGKVFSEASSLRRHMRIHKGVKPYVCHLCGKAFTQCNQLKTHVRTHTGEKPYKCELCDKGFAQKCQLVFHSRMHHGEEKPYKCDVCNLQFATSSNLKIHARKHSGEKPYVCDRCGQRFAQASTLTYHVRRHTGEKPYVCDTCGKAFAVSSSLITHSRKHTGEKPYICGICGKSFISSGELNKHFRSHTGERPFICELCGNSYTDIKNLKKHKTKVHSGADKTLDSSAEDHTLSEQDSIQKSPLSETMDVKPSDMTLPLALPLGTEDHHMLLPVTDTQSPTSDTLLRSTVNGYSEPQLIFLQQLY | -0.5885 |
